The target of test [1] is T1, _(Alexa488)DDB1 (human, UniProt Q16531 1-1140, SpyTag joined to SpyCatcher (S50C) labelled with Alexa488–C5–maleimide). The experiment in a line: FRET; compound Z11 titration.
For test [2], the target named is T1, _(Alexa488)DDB1. The experiment in a line: FRET; compound dCeMM3 titration.
Test [3] concerns the target T1, _(Alexa488)DDB1. The experiment in a line: FRET; compound HQ461 titration.
Test [4] deals with T1, _(Alexa488)DDB1. The experiment in a line: FRET; compound Z7 titration.
Test [5] has as its target T1, _(Alexa488)DDB1. The experiment in a line: FRET; compound Z12 titration.

In general, EC50 refers to the concentration giving half of the maximal effect.

T1 sequence (Q16531 whole entry): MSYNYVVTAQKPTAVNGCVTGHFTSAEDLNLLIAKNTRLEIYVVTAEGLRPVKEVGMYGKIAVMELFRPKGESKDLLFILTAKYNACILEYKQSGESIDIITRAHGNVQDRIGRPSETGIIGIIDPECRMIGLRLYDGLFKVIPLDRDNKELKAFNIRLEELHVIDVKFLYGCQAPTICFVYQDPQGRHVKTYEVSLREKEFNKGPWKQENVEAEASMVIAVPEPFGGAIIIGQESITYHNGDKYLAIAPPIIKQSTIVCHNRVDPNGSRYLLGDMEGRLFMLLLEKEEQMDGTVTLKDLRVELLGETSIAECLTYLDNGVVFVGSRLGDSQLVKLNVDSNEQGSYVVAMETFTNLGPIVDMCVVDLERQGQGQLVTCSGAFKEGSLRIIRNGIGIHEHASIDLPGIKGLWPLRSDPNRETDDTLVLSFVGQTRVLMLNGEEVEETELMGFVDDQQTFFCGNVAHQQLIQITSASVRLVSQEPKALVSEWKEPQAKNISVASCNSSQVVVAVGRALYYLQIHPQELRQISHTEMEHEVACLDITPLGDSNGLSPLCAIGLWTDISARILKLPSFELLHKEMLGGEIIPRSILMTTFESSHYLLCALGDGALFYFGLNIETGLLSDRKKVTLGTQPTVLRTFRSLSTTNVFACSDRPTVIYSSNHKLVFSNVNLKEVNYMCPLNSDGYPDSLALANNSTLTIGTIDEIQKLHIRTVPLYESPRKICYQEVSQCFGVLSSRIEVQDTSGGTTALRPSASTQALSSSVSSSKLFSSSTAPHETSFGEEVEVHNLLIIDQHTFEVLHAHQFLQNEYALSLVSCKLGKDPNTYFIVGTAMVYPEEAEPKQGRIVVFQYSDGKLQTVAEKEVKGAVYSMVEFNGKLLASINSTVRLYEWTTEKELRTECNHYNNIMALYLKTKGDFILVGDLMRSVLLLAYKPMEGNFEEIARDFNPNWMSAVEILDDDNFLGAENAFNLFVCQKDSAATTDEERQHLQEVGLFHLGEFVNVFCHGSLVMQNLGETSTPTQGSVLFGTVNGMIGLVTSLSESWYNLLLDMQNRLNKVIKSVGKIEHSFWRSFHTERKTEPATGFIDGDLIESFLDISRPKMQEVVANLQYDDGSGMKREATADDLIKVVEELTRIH

B1: CDK12–cyclin K_(biotin) (complex)
chain 1: not shown
chain 2: MKENKENSSPSVTSANLDHTKPCWYWDKKDLAHTPSQLEGLDPATEARYRREGARFIFDVGTRLGLHYDTLATGIIYFHRFYMFHSFKQFPRYVTGACCLFLAGKVEETPKKCKDIIKTARSLLNDVQFGQFGDDPKEEVMVLERILLQTIKFDLQVEHPYQFLLKYAKQLKGDKNKIQKLVQMAWTFVNDSLCTTLSLQWEPEIIAVAVMYLAGRLCKFEIQEWTSKPMYRRWWEQFVQDVPVDVLEDICHQILDLYSQGKQQMPH
modifications: biotin on the Avi tag (enzymatic, BirA)
Take B1: the EC50 amounted to 178 nM with _(Alexa488)DDB1 [1]; 263 nM with _(Alexa488)DDB1 [2]; 43 nM with _(Alexa488)DDB1 [3]; 303 nM with _(Alexa488)DDB1 [4]; 833 nM with _(Alexa488)DDB1 [5].
